Results as given in publication PMC3428924.

Legend:
[1] = biological target: elongation factor 1B beta (eEF1Bβ) of C. fasciculata (C. fasciculata (endogenous in choanomastigotes)); test: SEC
[2] = biological target: elongation factor 1B alpha (eEF1Bα) of C. fasciculata (C. fasciculata (endogenous in choanomastigotes)); test: SEC

Row | Substance | stoichiometry N [1] | stoichiometry N [2]
1 | elongation factor 1B alpha (eEF1Bα) of C. fasciculata (natural protein) | 1 α per β | 
2 | elongation factor 1B gamma (eEF1Bγ) of C. fasciculata (natural protein) | 2 γ per β | 2 γ per α
